# Target: the RBD of spike (depending on domain and variant)
# Assay: ELISA
# LRRC15-Fc, sequence (Q8TF66 22-538): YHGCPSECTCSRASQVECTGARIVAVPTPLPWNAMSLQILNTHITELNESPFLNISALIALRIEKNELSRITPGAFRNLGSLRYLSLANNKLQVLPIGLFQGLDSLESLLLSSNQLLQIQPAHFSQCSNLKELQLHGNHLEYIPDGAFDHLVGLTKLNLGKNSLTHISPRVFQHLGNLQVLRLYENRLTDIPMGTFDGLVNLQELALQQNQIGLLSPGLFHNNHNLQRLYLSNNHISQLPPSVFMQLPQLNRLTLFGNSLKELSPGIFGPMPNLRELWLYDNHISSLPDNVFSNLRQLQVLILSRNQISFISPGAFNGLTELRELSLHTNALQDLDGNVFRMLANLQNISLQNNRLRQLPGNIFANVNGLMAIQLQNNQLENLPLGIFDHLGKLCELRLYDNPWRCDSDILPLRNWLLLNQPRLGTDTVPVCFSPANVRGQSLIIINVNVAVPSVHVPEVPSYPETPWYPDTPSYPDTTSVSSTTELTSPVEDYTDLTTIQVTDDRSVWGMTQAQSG
substance,measurement,value
LRRC15-Fc (from UniProt Q8TF66) (Fc fusion),Kd,0.043 to 0.148 µM
